As usually defined, the Kd is the constant that tells how readily two partners part at equilibrium. A higher Kd goes with a looser complex. As a reminder, the EC50 is the midpoint of the concentration-response curve.

The target of test [1] is T1, SARS-CoV-2受体结合区RBD-His蛋白 (SARS-CoV-2, UniProt P0DTC2 316-550).
Test [2] addresses SARS-CoV-2 Sde18截短蛋白 (假病毒SARS-CoV2 VSVpp所携带) (SARS-CoV-2, UniProt P0DTC2 14-1255). Nature of the test: cell-based or functional assay.
The target of another test is T2, SARS-CoV-2受体结合区RBD-mFc (SARS-CoV-2, UniProt P0DTC2 319-541).
T2 construct: domain: 受体结合区RBD
The test can be described thus: indirect ELISA, RBD-mFc coated at 2 μg/mL, HRP goat anti-rabbit IgG.

Test [3] concerns the target T1, SARS-CoV-2受体结合区RBD-His蛋白. The test can be described thus: indirect ELISA, RBD-His coated at 2 μg/mL, HRP goat anti-human IgG. (In an ELISA, binding on a coated surface is turned into a signal by an enzyme label.)

B1: 兔源单克隆抗体3F4 (antibody, V domains shown)
VH: QSVKESGGRLVTPGTPLTLTCTVSGFSLSSYWMSWVRQAPGKGLEWIGIIFTGGSTYYASWAKGRFTISKTSTTVDLKITSPTTEDTATYFCARTSYYDVSGWGVGRLDLWGQGTLVTVSS
VL: DPMLTQTASSVSAAVGGTVTISCQSSQSVYDNNWLGWYQQKPGQPPKLLIYSASTLASGVPSRFKGSGSGTQFTLTISDLECDDAATYYCAGGYSGNIFAFGGGTELEIL
notes: also called r3F4
On to B1, for which, in the test with SARS-CoV-2受体结合区RBD-His蛋白 [1], binding was put at a Kd of 8.79 nM. The “IC50 (SARS-CoV2 VSVpp假病毒感染模型中和, BHK21-hACE2细胞)” value in test [2] stood at 1.95 ng/mL. In the test with SARS-CoV-2受体结合区RBD-mFc, this molecule came in with an EC50 of 0.0144 µg/mL.

B2: 3F4人源化抗体 (VH SEQ ID NO:15 + VL SEQ ID NO:19) (antibody, V domains shown)
VH: EVQLVESGGGLVQPGGSLRLSCAASGFSLSSYWMSWVRQAPGKGLEWVSIIFTGGSTYYASWAKGRFTISRHNSKNTLYLQMNSLRAEDTAVYYCARTSYYDVSGWGVGRLDLWGQGTLVTVSS
VL: DIQMTQSPSTLSASVGDRVTITCQSSQSVYDNNWLGWYQQKPGKAPKLLIYSASTLASGVPSRFSGSGSGTEFTLTISSLQPDDFATYYCAGGYSGNIFAFGQGTKLEILR
In the case of B2, the binding result with SARS-CoV-2受体结合区RBD-His蛋白 [3] was “binds”.

B3: 3F4人源化抗体 (VH SEQ ID NO:18 + VL SEQ ID NO:19) (antibody, V domains shown)
VH: EVQLVESGGGLVQPGGSLRLSCTVSGFSLSSYWMSWVRQAPGKGLEWVSIIFTGGSTYYASWAKGRFTISRHNSKNTLYLQMNSLRAEDTAVYYCARTSYYDVSGWGVGRLDLWGQGTLVTVSS
VL: DIQMTQSPSTLSASVGDRVTITCQSSQSVYDNNWLGWYQQKPGKAPKLLIYSASTLASGVPSRFSGSGSGTEFTLTISSLQPDDFATYYCAGGYSGNIFAFGQGTKLEILR
On to B3, for which the binding result with SARS-CoV-2受体结合区RBD-His蛋白 [3] was “binds”.

B4: 3F4人源化抗体 (VH SEQ ID NO:17 + VL SEQ ID NO:19) (antibody, V domains shown)
VH: EVQLVESGGGLVQPGGSLRLSCAASGFSLSSYWMSWVRQAPGKGLEWVSIIFTGGSTYYASWAKGRFTISRHNSKNTLYLQMNSLRAEDTATYFCARTSYYDVSGWGVGRLDLWGQGTLVTVSS
VL: DIQMTQSPSTLSASVGDRVTITCQSSQSVYDNNWLGWYQQKPGKAPKLLIYSASTLASGVPSRFSGSGSGTEFTLTISSLQPDDFATYYCAGGYSGNIFAFGQGTKLEILR
For the molecule B4, in the test with SARS-CoV-2受体结合区RBD-His蛋白 [3], the binding result is listed as “binds”.

B5: 3F4人源化抗体 (VH SEQ ID NO:16 + VL SEQ ID NO:19) (antibody, V domains shown)
VH: EVQLVESGGGLVQPGGSLRLSCAASGFSLSSYWMSWVRQAPGKGLEWIGIIFTGGSTYYASWAKGRFTISRHNSKNTLYLQMNSLRAEDTAVYYCARTSYYDVSGWGVGRLDLWGQGTLVTVSS
VL: DIQMTQSPSTLSASVGDRVTITCQSSQSVYDNNWLGWYQQKPGKAPKLLIYSASTLASGVPSRFSGSGSGTEFTLTISSLQPDDFATYYCAGGYSGNIFAFGQGTKLEILR
Regarding B5, in the test with SARS-CoV-2受体结合区RBD-His蛋白 [3], the binding result is “binds”.

Source of the values: patent CN113583115A (YANG SHENG TANG CO LTD; UNIV XIAMEN, dated 2021).
